Data reported in patent US20120263732A1, “CD40 ANTIBODY FORMULATION AND METHODS” (PFIZER INC., priority 2003, published 2012).

Columns and labels:
[1] = mouse, in vivo
[2] = system: CD40(+) Raji B cell lymphoma; assay: CD40(+) Raji B cell lymphoma growth in SCID-beige mice; format: in vivo, human tumor in SCID-beige mice
Protocol: SCID-beige mice were injected subcutaneously with the CD40(+) Raji B cell lymphoma (ATCC CCL-86) (SC) followed by a single dose of 21.4.1 (IP) at the time of tumor injection. Some animals were also injected with human T cells and DC. Tumor growth was assessed on Day 21.

[3] = target: T1, CD40 receptors on human leukocytes (Homo sapiens, UniProt P25942); assay: 125I-21.4.1 binding to CD40 receptors on human leukocytes; conditions: 500-fold excess unlabeled 21.4.1; total % specific binding minus % binding to FcR
T1 construct: Human leukocytes from normal donors or cynomolgus leukocytes were isolated from whole blood; endogenous in cells; host or cells: human peripheral blood leukocytes from normal donors
T1 sequence (P25942 21-277): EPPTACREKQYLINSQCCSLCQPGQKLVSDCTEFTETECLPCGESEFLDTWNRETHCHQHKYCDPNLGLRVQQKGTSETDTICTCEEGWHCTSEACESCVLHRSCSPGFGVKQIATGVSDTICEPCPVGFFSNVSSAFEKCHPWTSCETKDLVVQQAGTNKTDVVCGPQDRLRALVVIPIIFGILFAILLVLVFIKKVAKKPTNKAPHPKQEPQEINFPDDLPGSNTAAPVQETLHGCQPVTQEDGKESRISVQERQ
Protocol: (§1) The binding of 21.4.1 to Fc receptors (FcR) on human or cynomolgus peripheral blood leukocytes was determined by using ^125I-21.4.1 and a human IgG1 control mAb. Human leukocytes from normal donors or cynomolgus leukocytes were isolated from whole blood using plasma gel and washed thoroughly to allow dissociation of receptor-bound serum immunoglobulins. Centrifugation through a sucrose cushion was used to separate cell-bound and free antibodies. Studies were performed at 4° C. in the presence of sodium azide to prevent receptor internalization.
(§2) 21.4.1 was tested for specific binding to FcR by using excess unlabeled human IgG2 isotype matched antibody as a competitor. ^125I-21.4.1 specific binding to FcR on human leukocytes (n=5 donors) was −1.0±8.5%, and specific binding to FcR on cynomolgus leukocytes (n=4) was 15±13%. […] The specific binding of the IgG1 control antibody to FcR on human and cynomolgus leukocytes accounted for 56% and 51% of the total bound radioactivity, respectively.

[4] = Multiple-dose IV pharmacokinetics; format: in vivo, cynomolgus monkeys
Protocol: In a multiple-dose study, 21.4.1 was administered intravenously to cynomolgus monkeys (2/sex/dose) at doses of 0.3, 1.0, and 10 mg/kg on Days 1, 3, 5, 7, and 9 for 5 total doses. Blood was collected on Days 1 and 9 before dosing and 0.5, 6, and 24 hours after dosing and before dosing and 0.5 hour after dosing on Day 5 to measure serum drug concentrations. Systemic exposure to 21.4.1, as assessed by mean Cmax and mean AUG(0-24), increased with increasing dose from 0.3 to 10 mg/kg on both Day 1 and Day 9 (Table 2). Similar exposures (mean Cmax and mean AUC) were observed on Days 1 and 9 in the 0.3 and 1 mg/kg dose groups. […] Gender-related differences in exposure were not observed.

[5] = system: CD40(−) erythroleukemic tumor, K562; assay: CD40(−) K562 erythroleukemic tumor growth in SCID-beige mice; format: in vivo, human tumor in SCID-beige mice
Protocol: (§3) The effects of a CD40 antibody (21.4.1) on the growth of CD40(−) tumors (e.g., erythroleukemia and colon carcinoma) were examined. In particular, K562 tumors were chosen to assess the efficacy of 21.4.1 against a CD40(−) low immunogenic (class I and II negative) tumor.
(§4) SCID-beige mice were injected SC with the CD40(−) erythroleukemic tumor, K562 (ATCC CCL-243) alone or in the presence of human peripheral blood T cells and DCs. Animals received a single IP injection of 21.4.1 either at the time of tumor injection or 5 days later using various dose levels.

[6] = system: Fc receptors (FcR) on human peripheral blood leukocytes; assay: 125I-antibody binding to Fc receptors on human leukocytes; conditions: 125I-labelled antibody; 4° C., sodium azide; 21.4.1: excess unlabeled human IgG2 competitor, n=5 donors
Protocol: (§5) The binding of an anti-CD40 antibody (21.4.1) to Fc receptors on human and cynomolgus leukocytes was examined.
as §1, §2

[7] = system: Fc receptors (FcR) on cynomolgus peripheral blood leukocytes; assay: 125I-antibody binding to Fc receptors on cynomolgus leukocytes; conditions: 125I-labelled antibody; 4° C., sodium azide; 21.4.1: excess unlabeled human IgG2 competitor, n=4
Protocol: as §5, §1, §2

[8] = system: CD40(−) colon carcinoma, Lovo; assay: CD40(−) Lovo colon carcinoma growth in SCID-beige mice; format: in vivo, human tumor in SCID-beige mice; conditions: in the absence of immune cells
Protocol: as §3, §4
The amount of 21.4.1 to cause a 50% inhibition of tumor growth was 0.005 mg/kg corresponding to a Cmax serum concentration of 0.05 μg/mL. […] The results were identical when 21.4.1 was administered on Day 0 or Day +5 relative to tumor challenge. The growth of these CD40(−) tumors was not inhibited by 21.4.1 in the absence of immune cells.

[9] = Primate anti-human antibody (PAHA) response; format: in vivo, cynomolgus monkeys; conditions: all monkeys in the 3, 5, and 10 mg/kg dose groups; 14 to 28 days following administration
Protocol: The observed dose-dependent clearance may be in part due to the binding of 21.4.1 to CD40 receptors that are widely expressed in normal tissues and the subsequent internalization and elimination of the antibody-receptor complex. Development of primate anti-human antibody (PAHA) response may also contribute to the accelerated clearance in some monkeys. PAHA was evaluated only after individual serum concentrations of 21.4.1 reached the lower limit of quantitation (LLOQ, 0.03 μg/mL) since the presence of 21.4.1 in test serum interferes with the assay for PAHA. Anti-21.4.1 antibodies were detected in all monkeys in the 3, 5, and 10 mg/kg dose groups at 14 to 28 days following administration of the antibody.

[10] = Serum pharmacokinetics after one injection in SCID-beige mice
[11] = 0.3 mg/kg IV every other day, Day 1
[12] = 0.3 mg/kg IV every other day, Day 9
[13] = 1.0 mg/kg IV every other day, Day 1
[14] = 1.0 mg/kg IV every other day, Day 9
[15] = 10 mg/kg IV every other day, Day 1
[16] = 10 mg/kg IV every other day, Day 9

## 21.4.1: human agonist anti-CD40 antibody; amino acid sequences SEQ ID NOs:5-8; hybridoma deposit PTA-3605
[1]
  T1/2: > 720 h
[2]; Raji
  anti-tumor activity against CD40(+) tumors when immune cells were present: enhanced
[2]; Raji co-injected with immune cells (human T cells and DC), single IP dose, Day 21
  amount necessary to cause a 50% inhibition of tumor growth: 0.001 mg/kg
[2]; Raji in the absence of immune cells, single IP dose, Day 21
  amount to cause a 50% inhibition of tumor growth (IC50): 0.02 mg/kg
[2]; Raji, with vs without immune cells
  decrease of the 50% inhibitory amount when immune cells co-injected: 20 fold
[3]
  specific binding to CD40 receptors on human leukocytes: 49%
[4]; [11]
  AUC(0-24): 47.7 ± 15.4 µg·h/mL
  Cmax: 4670 ± 1710 ng/mL
  Tmax: 1.9 ± 2.8 h
[4]; [12]
  AUC(0-24): 55.6 ± 47.1 µg·h/mL
  Cmax: 7400 ± 2900 ng/mL
  Tmax: 0.5 ± 0.0 h
[4]; [13]
  AUC(0-24): 387 ± 59 µg·h/mL
  Cmax: 26700 ± 5100 ng/mL
  Tmax: 0.5 ± 0.0 h
[4]; [14]
  AUC(0-24): 219 ± 151 µg·h/mL
  Cmax: 12300 ± 9100 ng/mL
  Tmax: 1.9 ± 2.8 h
[4]; [15]
  AUC(0-24): 4130 ± 600 µg·h/mL
  Cmax: 226000 ± 29000 ng/mL
  Tmax: 1.9 ± 2.8 h
[4]; [16]
  AUC(0-24): 11400 ± 2100 µg·h/mL
  Cmax: 577000 ± 163000 ng/mL
  Tmax: 3.3 ± 3.2 h
[4]; 10 mg/kg dose group
  increase of mean AUG(0-24) from Day 1 to Day 9: 2.8 fold
  increase of mean Cmax from Day 1 to Day 9: 2.6 fold
[5]; K562 with human T cells and DC, single IP injection, Day 21
  amount to cause a 50% inhibition of tumor growth (IC50): 0.005 mg/kg
[5]; in the absence of immune cells
  growth of K562 tumor: not inhibited
[6]
  specific binding to FcR on human leukocytes: −1.0±8.5%
[7]
  specific binding to FcR on cynomolgus leukocytes: 15±13%
[8]
  growth of Lovo tumor: not inhibited
[9]
  anti-21.4.1 antibodies (PAHA): detected
[10]; corresponding to 0.001 mg/kg single IP
  Cmax serum concentration: 10 ng/mL
[10]; corresponding to 0.005 mg/kg single IP
  Cmax serum concentration: 50 ng/mL
[10]; corresponding to 0.02 mg/kg single IP
  Cmax serum concentration: 200 ng/mL
